According to the RNAGym collection of RNA variant scans (doi:10.1021/acssynbio.7b00057):

B1: Pistol ribozyme (parent)
chain: GGGUCGUUGUUCCAUAAUCGCGUGGAUAUGGCACGCAAGUUUCUACCGGGCACCGUAAAUGUCCGACUGGAGCCGUUCGGGCGGCUAUAAACAGACCUCAGGCCCGAAGCGUGGCGGCACCUGCCGCCGGUGGUAAAAAAGAUCGGAAGAGCACACGUCU

Variants of: B1
Experiment: aptazyme ON/OFF ratio, guanine; higher = stronger switching; co-transcriptional cleavage with and without guanine

Variant | aptazyme ON/OFF ratio
U7C G9A U10C U11A C12U | 1.34
U7C G9A U10C U11A C12A | 1.27
U7C G9C C12A | 1.03
U7C G9C C12U | 1.03
U7C G9C C12G | 1.04
U7A U11C C12U C13A | 1.27
U7A U11C C12U C13U | 1.38
U7A U11C C12U C13G | 1.38
U7C G9A U11A C13A | 1.21
U7C G9A U11A C13G | 1.09
U7C G9A U11A C13U | 1.13
U7C G9A U10G U11C C12U C13G | 1.09
U7C G9A U10G U11C C12U C13A | 1.2
U7C G9A U10G U11C C12U C13U | 1.21
U7C G9C U10A U11A C12A | 1.16
U7C G9A U10G U11A C12G | 1.21
U7C G9A U10G U11A C12U | 1.05
U7C G9A U10G U11A C12A | 1.32
U7C G9A U10G C12G C13A | 1.14
U7C G9A U10G C12G C13G | 1.1
U7C G9A U10G C12G C13U | 1.15
U7C G9A U10G U11G C13G | 1.05
U7C G9A U10G U11G C13U | 1.17
U7C G9A U10G U11G C13A | 1.24

Variant | aptazyme ON/OFF ratio
U7C G9A | 1.17
U7C G9C | 1.03
U7C G9A U10G U11A C12G C13G | 1.31
U7C G9A U10G U11A C12G C13A | 1.15
U7C G9A U10G U11A C12G C13U | 1.25
U7C G9A U10A C12U C13A | 1.16
U7C G9A U10A C12U C13G | 1.2
U7C G9A U10A C12U C13U | 1.25
U7C G9C U10A U11A | 1.05
U7C G9A U10G U11A C12A C13G | 1.09
U7C G9A U10G U11A C12A C13U | 1.16
U7C G9A U10G U11A C12A C13A | 1.17
U7C G9C C13G | 1.05
U7C G9C C13A | 1.03
U7C G9C C13U | 1.01
U7C G9C U10A C12G | 1.09
U7C G9C U10A C12A | 1.04
U7C G9C U10A C12U | 1.06
U7C G9A U10G U11C C12G C13G | 1.34
U7C G9A U10G U11C C12G C13U | 1.11
U7C G9A U10G U11C C12G C13A | 1.19
U7C G9A U10A U11A C12A C13G | 1.23
U7C G9A U10A U11A C12A C13U | 1.29
U7C G9A U10A U11A C12A C13A | 1.2

Variant | aptazyme ON/OFF ratio
U7C G9A U11C C12U C13G | 1.02
U7C G9A U11C C12U C13A | 1.17
U7C G9A U11C C12U C13U | 1.11
U7C G9A U10A C12A C13U | 1.05
U7C G9A U10A C12A C13A | 1.17
U7C G9A U10A C12A C13G | 1.14
U7C G9A C13U | 1.17
U7C G9A C13G | 1.03
U7C G9A C13A | 1.05
U7C G9A U11G C12A C13U | 1.14
U7C G9A U11G C12A C13A | 1.22
U7C G9A U11G C12A C13G | 1.25
U7C G9C U10A C12U C13U | 1.04
U7C G9C U10A C12U C13A | 1.08
U7C G9C U10A C12U C13G | 1.07
U7C G9A U10C U11A C13A | 1.18
U7C G9A U10C U11A C13G | 1.12
U7C G9A U10C U11A C13U | 1.33
U7A U11G C12G | 1.27
U7A U11G C12U | 1.22
U7A U11G C12A | 1.16
U7C G9A U10A U11G C13U | 1.25
U7C G9A U10A U11G C13A | 1.07
U7C G9A U10A U11G C13G | 1.02

Variant | aptazyme ON/OFF ratio
U7C G9C U10A C12A C13U | 1.09
U7C G9C U10A C12A C13A | 1.09
U7C G9C U10A C12A C13G | 1.09
U7C G9A U10C U11A C12A C13U | 1.16
U7C G9A U10C U11A C12A C13A | 1.12
U7C G9A U10C U11A C12A C13G | 1.22
U7C G9A U11C C13A | 1.07
U7C G9A U11C C13G | 1.04
U7C G9A U11C C13U | 1.06
U7C G9C C12U C13G | 1.04
U7C G9C C12U C13A | 1.01
U7C G9C C12U C13U | 1.02
U7C G9A U10A C12G C13U | 1.21
U7C G9A U10A C12G C13G | 1.18
U7C G9A U10A C12G C13A | 1.35
U7C C12G C13A | 1.18
U7C C12G C13U | 1.43
U7C C12G C13G | 1.17
U7A U11G | 1.17
U7C G9A U10A U11G C12G | 1.15
U7C G9A U10A U11G C12A | 1.02
U7C G9A U10A U11G C12U | 1.31
U7C G9A U10A U11A C12U C13A | 1.18
U7C G9A U10A U11A C12U C13G | 1.25

Variant | aptazyme ON/OFF ratio
U7C G9A U10A U11A C12U C13U | 1.19
U7C G9A U10C U11C C12G C13A | 1.09
U7C G9A U10C U11C C12G C13U | 1.04
U7C G9A U10C U11C C12G C13G | 1.12
U7C C13U | 1.18
U7C C13G | 1.05
U7C C13A | 1.14
U7C G9C U10A C13G | 1.05
U7C G9C U10A C13A | 1.04
U7C G9C U10A C13U | 1.05
U7C G9A U10A U11G C12U C13U | 1.27
U7C G9A U10A U11G C12U C13A | 1.16
U7C G9A U10A U11G C12U C13G | 1.13
U7C G9A U10C U11C C12A C13G | 1.15
U7C G9A U10C U11C C12A C13A | 1.07
U7C G9A U10C U11C C12A C13U | 1.16
U7C G9A U10G U11A | 1.06
U7C G9A U10G U11C | 1.08
U7C G9A U10G U11G | 1.09
U7C G9A U10C C12A C13A | 1.38
U7C G9A U10C C12A C13U | 1.31
U7C G9A U10C C12A C13G | 1.17
U7C G9A U10C C12G C13U | 1.15
U7C G9A U10C C12G C13A | 1.26

Variant | aptazyme ON/OFF ratio
U7C G9A U10C C12G C13G | 1.26
U7C G9A C12G C13G | 1.2
U7C G9A C12G C13A | 1.18
U7C G9A C12G C13U | 1.23
U7C G9A U11A C12A C13G | 1.12
U7C G9A U11A C12A C13U | 1.21
U7C G9A U11A C12A C13A | 1.24
U7C G9A U10C U11C C12A | 1.34
U7C G9A U10C U11C C12U | 1.05
U7C G9A U10C U11C C12G | 1.2
U7C G9A U10G U11A C13G | 1.04
U7C G9A U10G U11A C13U | 1.03
U7C G9A U10G U11A C13A | 1.06
U7C C12A C13G | 1.1
U7C C12A C13U | 1.19
U7C C12A C13A | 1.16
U7C G9A U10A U11C C12G C13G | 1.46
U7C G9A U10A U11C C12G C13A | 1.27
U7C G9A U10A U11C C12G C13U | 1.12
U7C G9A U10G U11G C12A C13U | 1.13
U7C G9A U10G U11G C12A C13A | 1.17
U7C G9A U10G U11G C12A C13G | 1.09
U7C G9A U11A C12G C13G | 1.19
U7C G9A U11A C12G C13U | 1.27

Variant | aptazyme ON/OFF ratio
U7C G9A U11A C12G C13A | 1.15
U7C G9A U10G U11G C12U C13A | 1.14
U7C G9A U10G U11G C12U C13U | 1.21
U7C G9A U10G U11G C12U C13G | 1.05
U7C G9A U10A U11A C12G | 1.2
U7C G9A U10A U11A C12U | 1.27
U7C G9A U10A U11A C12A | 1.24
U7A U11C C12U | 1.43
U7C G9A U10A U11C C12U C13A | 1.24
U7C G9A U10A U11C C12U C13G | 1.05
U7C G9A U10A U11C C12U C13U | 1.23
U7C G9A U11G C12A | 1.08
U7C G9A U11G C12U | 1.27
U7C G9A U11G C12G | 1.37
U7C G9A U10G C12A C13A | 1.15
U7C G9A U10G C12A C13G | 1.08
U7C G9A U10G C12A C13U | 1.19
U7C G9A C12A | 1.33
U7C G9A C12G | 1.14
U7C G9A C12U | 1.16
U7C G9A U10A U11A C12G C13G | 1.22
U7C G9A U10A U11A C12G C13U | 1.19
U7C G9A U10A U11A C12G C13A | 1.17
